Source: the supplement of paper PMC7125110
± gives the standard error. For some of these results: Fewer inactive variants are shown than the library holds.

B1: glmS ribozyme (parent)
chain: AUAAAAGCGCCAGAACUACAGAAAUGUAGUUGACGAGGAGGAGGUUUAUCGAAUUUUCGGCGGAUGCCUCCAAA

Experiments:
Conditions in all cases: with glucosamine-6-phosphate
glucosamine-6-phosphate [1] = variants of: B1; assay: kcat; higher = faster cleavage; RNA array
In short: (§1)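 Tiles bearing barcoded ribozyme variants, transcribed in situ by E. coli RNA polymerase on sequenced MiSeq chips, were imaged over ~14 h at 37 °C using a hybridised Cy3 probe. Glucosamine-6-phosphate was supplied at 40 μM to 10 mM in HEPES/KCl/Mg(OAc)2 buffer. kobs came from one- or two-exponential decay fits to normalised per-tile medians, and weighted Michaelis–Menten fits then provided kcat and KM.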

glucosamine-6-phosphate [2] = variants of: B1; assay: KM; higher = weaker cofactor use; RNA array
In short: as §1

glucosamine-6-phosphate [3] = variants of: B1; assay: self-cleavage kobs at 40 uM GlcN6P; higher = faster cleavage; RNA array
In short: as §1

glucosamine-6-phosphate [4] = variants of: B1; assay: self-cleavage kobs at 160 uM GlcN6P; higher = faster cleavage; RNA array
In short: as §1

glucosamine-6-phosphate [5] = variants of: B1; assay: self-cleavage kobs at 640 uM GlcN6P; higher = faster cleavage; RNA array
In short: as §1

glucosamine-6-phosphate [6] = variants of: B1; assay: self-cleavage kobs at 2500 uM GlcN6P; higher = faster cleavage; RNA array
In short: as §1

glucosamine-6-phosphate [7] = variants of: B1; assay: self-cleavage kobs at 10000 uM GlcN6P; higher = faster cleavage; RNA array
In short: as §1

Variant | kcat (glucosamine-6-phosphate [1]) | KM (glucosamine-6-phosphate [2]) | self-cleavage kobs at 40 uM GlcN6P (glucosamine-6-phosphate [3]) | self-cleavage kobs at 160 uM GlcN6P (glucosamine-6-phosphate [4]) | self-cleavage kobs at 640 uM GlcN6P (glucosamine-6-phosphate [5]) | self-cleavage kobs at 2500 uM GlcN6P (glucosamine-6-phosphate [6]) | self-cleavage kobs at 10000 uM GlcN6P (glucosamine-6-phosphate [7])
AUAAAAGCGCCAGAACUACAGAAAUGUAGUCGCCGAGGAGGAGGUUUAUCGAAUUUUCGGCGGAUGCCUCCAAA [U31C A33C] | < 1e-05 s⁻¹ | 5010 ± 1800 µM | < 1e-05 s⁻¹ | < 1e-05 s⁻¹ | – | – | –
AUAAAAGCGCCAGAACUACAGAAAUGUAGUUGACGAGGACGAGGUUUAUCGAAUUGUCGGCGGAUGCCUCCAAA [G40C U56G] | 0.00124 ± 0.00014 s⁻¹ | 1460 ± 280 µM | 3.52e-05 ± 6.5e-06 s⁻¹ | 0.000146 ± 2.1e-05 s⁻¹ | 0.000333 ± 3.5e-05 s⁻¹ | 0.000869 ± 0.00011 s⁻¹ | 0.00108 ± 9.7e-05 s⁻¹
AUAAAAGCGCCAGAAGUACAGAAAUGUAGUUGACGAGGAGGAGGUUUAUCGAAUUUUCGGCGGAUGCUUCCAAA [C16G C68U] | 0.000168 ± 6e-06 s⁻¹ | 778 ± 79 µM | – | 3.33e-05 ± 1.5e-05 s⁻¹ | 7.49e-05 ± 1.2e-05 s⁻¹ | 0.000125 ± 1.6e-05 s⁻¹ | 0.00016 ± 2.3e-05 s⁻¹
AUAAAAGCGCCAGAACUACAGAAAUGUAGUUGACGAAGAGGAGGUUUAUCGAAUUUUCGGCGGAUGCCUCCAAA [G37A] | 0.00564 ± 0.001 s⁻¹ | 3540 ± 830 µM | 7.38e-05 ± 1.4e-06 s⁻¹ | 0.000198 ± 7.5e-06 s⁻¹ | 0.000777 ± 1.7e-05 s⁻¹ | 0.00255 ± 7.6e-05 s⁻¹ | 0.00419 ± 8.2e-05 s⁻¹
AUAAAAGCGCCAGACCUACAGAAAUGUAGUUGACGAGGAGGAGGUUCAUCGAAUUUUCGGCGGAUGCCUCCAAA [A15C U47C] | 0.000622 ± 8.7e-05 s⁻¹ | 3550 ± 830 µM | – | – | 0.000108 ± 2e-05 s⁻¹ | 0.000244 ± 4.5e-05 s⁻¹ | 0.000465 ± 7.5e-05 s⁻¹
AUAAAAGCGCCAGAACUACAGAAAUGUAGCUGACGAGGAGGAGGUUUAUCGAAUUUUCGGCGGAGGCCUCCAAA [U30C U65G] | 7.96e-05 ± 3.5e-06 s⁻¹ | 1130 ± 230 µM | – | – | 3.09e-05 ± 1e-05 s⁻¹ | 4.99e-05 ± 1.1e-05 s⁻¹ | 7.23e-05 ± 6.6e-06 s⁻¹
AUAAAAGCGCCAGAACUACAGAAAUGUAUUUGACGAGGAGGAGGUUUCUCGAAUUUUCGGCGGAUGCCUCCAAA [G29U A48C] | 1.88e-05 ± 3.6e-07 s⁻¹ | 138 ± 42 µM | < 1e-05 s⁻¹ | < 1e-05 s⁻¹ | – | – | 1.85e-05 ± 7.6e-06 s⁻¹
AUAAAAGCGCCAGAACUACAGAAAUGUAGUUGACGAGGAGGAGGUUUAUUGAAUUUUGGGCGGAUGCCUCCAAA [C50U C58G] | 1.24e-05 ± 3.2e-06 s⁻¹ | – | < 1e-05 s⁻¹ | – | – | – | –
AUAAAAGCGCCAGAACUACAGAAAUGUAGUUCACGAGGAGUAGGUUUAUCGAAUUUUCGGCGGAUGCCUCCAAA [G32C G41U] | < 1e-05 s⁻¹ | – | < 1e-05 s⁻¹ | < 1e-05 s⁻¹ | – | – | –
AUAAAAGCGCCAGAACUACAGAAAUGUAGUUGACGAGGAGGAGGUUUAUCGAAUUUUAGGCGGAUGGCUCCAAA [C58A C67G] | 9.61e-05 ± 2.2e-05 s⁻¹ | – | – | 3.39e-05 ± 1.3e-05 s⁻¹ | 6.98e-05 ± 9.8e-06 s⁻¹ | 6.08e-05 ± 1e-05 s⁻¹ | 0.000124 ± 1.3e-05 s⁻¹
AUAAAAGCGCCAGAACUACAGAAAUGUAGUUGACGAGGAAGAGGUUUAUCGAAUUUUCGGCGGAUGCCUGCAAA [G40A C70G] | 0.00031 ± 9.1e-05 s⁻¹ | – | – | – | 0.000105 ± 1.9e-05 s⁻¹ | 0.000394 ± 0.00012 s⁻¹ | 0.000244 ± 6.4e-05 s⁻¹
AUAAAAGCGCCAGAACUACAGAAAUGUAGUUGACGAGGAGGAGGUUUAUCGUAUAUUCGGCGGAUGCCUCCAAA [A52U U55A] | 0.000247 ± 3.7e-05 s⁻¹ | 2490 ± 990 µM | – | – | 3.67e-05 ± 1.3e-05 s⁻¹ | 0.000147 ± 1.8e-05 s⁻¹ | 0.000191 ± 1.8e-05 s⁻¹
AUAAAAGCGCCAGAACUACAGAAAUGUAGUUGAAGAGGAGGAGGAUUAUCUAAUUUUCGGCGGAUGCCUCCAAA [C34A U45A G51U] | 0.000482 ± 0.00015 s⁻¹ | – | – | – | 0.000198 ± 5.3e-05 s⁻¹ | 0.000272 ± 0.0001 s⁻¹ | 0.00041 ± 0.00016 s⁻¹
AUAAAAGCGCCAGAGCUACAGAAAUGUAGUUGACGAGGAGGAGGUUUAUCGAAUUUUCAGCGGAUGCCUCCAAA [A15G G59A] | 0.000151 ± 1.1e-05 s⁻¹ | 3440 ± 750 µM | – | – | – | 6.85e-05 ± 2.3e-05 s⁻¹ | 0.000112 ± 1.5e-05 s⁻¹
AUAAAAGCGCCAGAACUACAGAAAUGUAGUUGACGAGGAGGUGGUUUAUCGAAUUUUCGGCGGAUGCCUGCAAA [A42U C70G] | 2.5e-05 ± 2e-06 s⁻¹ | 979 ± 380 µM | – | – | – | – | 2.35e-05 ± 9.3e-06 s⁻¹
AUAAAAGCGCCCGAACUACAGAAAUGUAGUCGACGAGGAGGAGGUUUAUCGAAUUUUCGGCGGAUGCCUCCAAA [A12C U31C] | 0.00286 ± 0.00052 s⁻¹ | 5110 ± 1300 µM | 3.7e-05 ± 1.5e-05 s⁻¹ | 8.05e-05 ± 1.6e-05 s⁻¹ | 0.000348 ± 6.1e-05 s⁻¹ | 0.000876 ± 0.00014 s⁻¹ | 0.00195 ± 0.0003 s⁻¹
